Legend:
[1] = target: T1, ˜33 kDa protein of COS-1 cells, identified as monkey Annexin A2 (AnxA2; XP-001155637) (monkey); assay: Far Western blot of COS-1 lysates
T1 construct: Denatured on nitrocellulose in Far Western blots; native in co-IP; The ˜33 kDa band was also seen in BSC40 and HuH7 lysates; also called endogenous Annexin A2
Description: All of these were detected by the HRP-tagged V5 mAb. (B) The COS-1 cells soluble fraction (supernatant S3; 3 μg protein) was analyzed by Far Western blot and compared to 30 μg protein loads from other subcellular fractions. […] (D) For competition experiments, purified PCSK9-His or CHRD-His were added to the PCSK9-V5 conditioned media used for Far Western blotting. (E) PCSK9-V5-binding requirements were tested by adding 1M NaCl, 10 mg/ml heparin, 1M NaCl+10 mg/ml heparin, or 100 mM EDTA to the PCSK9-V5 conditioned media used for Far Western blotting. Heavy arrows point to the migration position of the ˜33 kDa protein, and the light arrow to that of the ˜45 kDa protein. (−) denotes a control lane where nothing was added to the Far Western blotting media;
Lysates (20 to 30 μg protein), media or purified AnxA2-(His)₆ were heated in reducing or non-reducing Laemmli sample buffer, resolved by SDS-PAGE on 8% glycine gels and electro-transferred onto nitrocellulose membranes (GE Healthcare). Following 1 h incubation in 5% skim milk in Tris-Buffered Saline-0.1% Tween (TBST), membranes where incubated with conditioned media of CHO-K1 cells overexpressing either an empty vector (pIRES-V5), PC5A-V5, CHRD-V5, pIRES-D374Y, PCSK9-V5 or its V5-tagged mutants, or incubated with purified AnxA2-(His)₆ for 3 h at room temperature. […]

[2] = target: T2, AnxA2 ΔR1-HA (deletion of aa 37-108) (human, UniProt P07355 1-339); assay: Far Western blot of HEK293 lysates
T2 construct: also called Δ37-108 (R1)

[3] = target: T3, PCSK9-V5 (full-length human PCSK9 with C-terminal V5 tag) (human, UniProt Q8NBP7 31-692); assay: co-immunoprecipitation with anti-V5 from co-transfected CHO-K1 cells
T3 construct: Used as conditioned medium of CHO-K1 cells (Far Western, pull-down) or co-expressed in cells (co-IP); The background says PCSK9 is secreted as a prosegment-PCSK9 heterodimer; also called full-length (FL) PCSK9-V5; native PCSK9; not shown: C-terminal V5 tag
Description: (§1) FIG. 4. Characterization of the interaction of PCSK9 with AnxA2. (A) PCSK9-V5 Far Western blot of lysates of COS-1 cells, wild type (WT) CHO-K1 cells, CHO-K1 cells overexpressing an empty vector (pIRES), AnxA1 or AnxA2. (B) Poly-histidine pull-down assay. Purified native AnxA2-(His)₆ or AnxA1-(His)₆ were immobilized on cobalt chelate beads and incubated with PCSK9-V5. […] PCSK9 (heavy arrow) and its furin-cleaved form (PCSK9-Δ218; light arrow) were pulled-down by AnxA2. (C) Co-immunoprecipitation experiments of CHO-K1 cells co-transfected with PCSK9-V5 and either AnxA1-HA, AnxA2-HA or with AnxA2-HA and p11. […] Expression of the transfected constructs was analyzed by Western blotting of cell lysates using the anti-V5-HRP or anti-HA-HRP antibodies. (D, left panel) PCSK9-V5 Far Western blots of purified AnxA2-(His)₆ in the absence or presence of reducing agents. Note that in non-reducing conditions, PCSK9-V5 binds both the dimer and monomer forms of AnxA2. (D, right panel) Western blots of the purified AnxA2-(His)₆ using the anti-AnxA2 mAb in non-reducing or reducing conditions. (E, upper panel) Media from CHO-K1 cells expressing PCSK9-V5 or the CHRD-V5 were separated by SDS-PAGE (8%), transferred onto nitrocellulose, incubated with purified AnxA2-(His)₆ and probed with the anti-His-HRP antibody. […]

[4] = target: T3, PCSK9-V5 (full-length human PCSK9 with …); assay: Far Western blot of lysates of CHO cells overexpressing AnxA1
Description: Lysates (20 to 30 μg protein), media or purified AnxA2-(His)₆ were heated in reducing or non-reducing Laemmli sample buffer, resolved by SDS-PAGE on 8% glycine gels and electro-transferred onto nitrocellulose membranes (GE Healthcare). Following 1 h incubation in 5% skim milk in Tris-Buffered Saline-0.1% Tween (TBST), membranes where incubated with conditioned media of CHO-K1 cells overexpressing either an empty vector (pIRES-V5), PC5A-V5, CHRD-V5, pIRES-D374Y, PCSK9-V5 or its V5-tagged mutants, or incubated with purified AnxA2-(His)₆ for 3 h at room temperature. […] For competition experiments, 10 μg of His-tagged PCSK9 or CHRD were added to the PCSK9-V5 media before Far Western blotting. For PCSK9 binding requirements with the ˜33 kDa protein, 1M NaCl, 10 mg/ml heparin, 1M NaCl+10 mg/ml heparin, or 100 mM EDTA were added to the PCSK9-V5 conditioned media used for Far Western blotting.

[5] = target: T3, PCSK9-V5 (full-length human PCSK9 with …); assay: poly-histidine pull-down, AnxA1-(His)6 on cobalt chelate beads, PCSK9-V5 medium
Description: as §1, with “conditions.” for “conditions. (E, upper panel) Media from CHO-K1 cells expressing PCSK9-V5 or the CHRD-V5 were separated by SDS-PAGE (8%), transferred onto nitrocellulose, incubated with purified AnxA2-(His)₆ and probed with the anti-His-HRP antibody.”
20 μg of purified AnxA2-(His)₆ or AnxA1-(His)₆ or no proteins (for negative control) were immobilized onto a cobalt chelate resin (Thermo Scientific). […] Supernatants were analyzed by Western blot as described above using the anti-V5-HRP or anti-His-HRP antibodies.

T1 sequence (P07355 2-339): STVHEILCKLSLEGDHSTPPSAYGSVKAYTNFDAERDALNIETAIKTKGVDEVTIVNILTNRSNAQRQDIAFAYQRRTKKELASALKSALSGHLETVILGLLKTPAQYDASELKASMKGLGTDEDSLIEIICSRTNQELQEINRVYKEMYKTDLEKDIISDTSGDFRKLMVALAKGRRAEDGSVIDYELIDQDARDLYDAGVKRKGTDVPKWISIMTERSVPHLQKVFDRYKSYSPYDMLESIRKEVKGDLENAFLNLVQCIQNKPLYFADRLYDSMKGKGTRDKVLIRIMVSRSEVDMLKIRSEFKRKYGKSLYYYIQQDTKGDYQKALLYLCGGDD

B1: CHRD-V5 (C-terminal Cys-His-rich domain of PCSK9, V5-tagged) (other, human, UniProt Q8NBP7 455-692, looked up)
chain: LFCRTVWSAHSGPTRMATAVARCAPDEELLSCSSFSRSGKRRGERMEAQGGKLVCRAHNAFGGEGVYAIARCCLLPQANCSVHTAPPAEASMGTRVHCHQQGHVLTGCSSHWEVEDLGTHKPPVLRPRGQPNQCVGHREASIHASCCHAPGLECKVKEHGIPAPQEQVTVACEEGWTLTGCSALPGTSHVLGAYAVDNTCVVRSRDVSTTGSTSEGAVTAVAICCRSRHLAQASQELQ
notes: domain: CHRD; Conditioned medium of CHO-K1 cells; also called CHRD alone; not shown: C-terminal V5 tag
Q: What does the source list for B1?
A: fold binding against full length PCSK9 [1]: 3 fold; binding result [2]: no binding

B2: AnxA1-HA (human AnxA1 with C-terminal HA epitope) (other)
chain: MAMVSEFLKQAWFIENEEQEYVQTVKSSKGGPGSAVSPYPTFNPSSDVAALHKAIMVKGVDEATIIDILTKRNNAQRQQIKAAYLQETGKPLDETLKKALTGHLEEVVLALLKTPAQFDADELRAAMKGLGTDEDTLIEILASRTNKEIRDINRVYREELKRDLAKDITSDTSGDFRNALLSLAKGDRSEDFGVNEDLADSDARALYEAGERRKGTDVNVFNTILTTRSYPQLRRVFQKYTKYSKHDMNKVLDLELKGDIEKCLTAIVKCATSKPAFFAEKLHQAMKGVGTRHKALIRIMVSRSEIDMNDIKAFYQKMYGISLCQAILDETKGDYEKILVALCGGNYPYDVPDYA
Q: Does B2 bind [3]?
A: no binding

B3: human Annexin A1 (AnxA1), untagged (other, UniProt P04083 2-346, looked up)
chain: AMVSEFLKQAWFIENEEQEYVQTVKSSKGGPGSAVSPYPTFNPSSDVAALHKAIMVKGVDEATIIDILTKRNNAQRQQIKAAYLQETGKPLDETLKKALTGHLEEVVLALLKTPAQFDADELRAAMKGLGTDEDTLIEILASRTNKEIRDINRVYREELKRDLAKDITSDTSGDFRNALLSLAKGDRSEDFGVNEDLADSDARALYEAGERRKGTDVNVFNTILTTRSYPQLRRVFQKYTKYSKHDMNKVLDLELKGDIEKCLTAIVKCATSKPAFFAEKLHQAMKGVGTRHKALIRIMVSRSEIDMNDIKAFYQKMYGISLCQAILDETKGDYEKILVALCGGN
notes: Overexpressed in CHO cells as control
Q: Does B3 bind [4]?
A: no binding

B4: purified AnxA1-(His)6 (other)
chain: MAMVSEFLKQAWFIENEEQEYVQTVKSSKGGPGSAVSPYPTFNPSSDVAALHKAIMVKGVDEATIIDILTKRNNAQRQQIKAAYLQETGKPLDETLKKALTGHLEEVVLALLKTPAQFDADELRAAMKGLGTDEDTLIEILASRTNKEIRDINRVYREELKRDLAKDITSDTSGDFRNALLSLAKGDRSEDFGVNEDLADSDARALYEAGERRKGTDVNVFNTILTTRSYPQLRRVFQKYTKYSKHDMNKVLDLELKGDIEKCLTAIVKCATSKPAFFAEKLHQAMKGVGTRHKALIRIMVSRSEIDMNDIKAFYQKMYGISLCQAILDETKGDYEKILVALCGGNHHHHHH
Q: Does B4 bind [5]?
A: no binding
